The source of these data is article PMC4157861.

In the assay the target is FHA domain of human kanadaptin (residues 149-276) (human) (UniProt Q9BWU0). The experiment in a line: crystal structure; crystals from 1.6 M ammonium sulfate, 0.1 M citric acid pH 5.0, 277 K; space group P2(1)2(1)2(1); tag removed; one homodimer in the asymmetric unit.

In general, stoichiometry N refers to the number of molecules, sites or subunits per partner or assembly.

For “FHA domain of human kanadaptin (residues 149-276) (from UniProt Q9BWU0 149-276) (domain or fragment)”, the stoichiometry N worked out at 2.
